Patent US20140199302A1 (GENERAL HOSPITAL, published 2014)

Key:
[1] = molecular target: T1, soluble human hemojuvelin with a HIS-tag (HJV.His) (human, UniProt Q6ZVN8 36-400, limits assumed); assay: SPR (Biacore), human BMP6 amine-coupled on CM5 chip, one-site univalent fit model; monomeric HJV.His; one-site univalent fit
T1 construct: also called monomeric HJV.His; not shown: HIS-tag
T1 sequence (looked up): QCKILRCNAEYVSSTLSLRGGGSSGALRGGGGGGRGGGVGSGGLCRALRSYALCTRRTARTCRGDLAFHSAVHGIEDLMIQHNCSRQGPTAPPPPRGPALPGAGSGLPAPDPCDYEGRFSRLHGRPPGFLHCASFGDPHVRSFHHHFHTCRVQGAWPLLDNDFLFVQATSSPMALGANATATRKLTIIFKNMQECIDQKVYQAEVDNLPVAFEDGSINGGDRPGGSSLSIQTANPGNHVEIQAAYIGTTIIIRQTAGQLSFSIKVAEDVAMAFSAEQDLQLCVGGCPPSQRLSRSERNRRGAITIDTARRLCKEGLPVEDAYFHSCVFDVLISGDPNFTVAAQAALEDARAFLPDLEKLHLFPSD

[2] = molecular target: T1, soluble human hemojuvelin with a …; assay: Biacore SPR, HJV.His in solution over human BMP6 immobilized on a CM5 chip by amine coupling; 1:1 binding fit (Chi2 9.32 printed beside it)

B1: human BMP6 (ligand, UniProt P22004 382-513, looked up)
chain: QQSRNRSTQSQDVARVSSASDYNSSELKTACRKHELYVSFQDLGWQDWIIAPKGYAANYCDGECSFPLNAHMNATNHAIVQTLVHLMNPEYVPKPCCAPTKLNAISVLYFDDNSNVILKKYRNMVVRACGCH
notes: also called bone morphogenic protein-6
Kd [1]: ~33 nM
Kd [2]: 36 nM
